The results in this text go back to article PMC4509936 (RNA, 2015).

Assay [1] addresses T1, BMV 1a protein, carboxy-terminal flag-tagged version (Brome mosaic virus, UniProt P03588 1-961).
T1 sequence (looked up): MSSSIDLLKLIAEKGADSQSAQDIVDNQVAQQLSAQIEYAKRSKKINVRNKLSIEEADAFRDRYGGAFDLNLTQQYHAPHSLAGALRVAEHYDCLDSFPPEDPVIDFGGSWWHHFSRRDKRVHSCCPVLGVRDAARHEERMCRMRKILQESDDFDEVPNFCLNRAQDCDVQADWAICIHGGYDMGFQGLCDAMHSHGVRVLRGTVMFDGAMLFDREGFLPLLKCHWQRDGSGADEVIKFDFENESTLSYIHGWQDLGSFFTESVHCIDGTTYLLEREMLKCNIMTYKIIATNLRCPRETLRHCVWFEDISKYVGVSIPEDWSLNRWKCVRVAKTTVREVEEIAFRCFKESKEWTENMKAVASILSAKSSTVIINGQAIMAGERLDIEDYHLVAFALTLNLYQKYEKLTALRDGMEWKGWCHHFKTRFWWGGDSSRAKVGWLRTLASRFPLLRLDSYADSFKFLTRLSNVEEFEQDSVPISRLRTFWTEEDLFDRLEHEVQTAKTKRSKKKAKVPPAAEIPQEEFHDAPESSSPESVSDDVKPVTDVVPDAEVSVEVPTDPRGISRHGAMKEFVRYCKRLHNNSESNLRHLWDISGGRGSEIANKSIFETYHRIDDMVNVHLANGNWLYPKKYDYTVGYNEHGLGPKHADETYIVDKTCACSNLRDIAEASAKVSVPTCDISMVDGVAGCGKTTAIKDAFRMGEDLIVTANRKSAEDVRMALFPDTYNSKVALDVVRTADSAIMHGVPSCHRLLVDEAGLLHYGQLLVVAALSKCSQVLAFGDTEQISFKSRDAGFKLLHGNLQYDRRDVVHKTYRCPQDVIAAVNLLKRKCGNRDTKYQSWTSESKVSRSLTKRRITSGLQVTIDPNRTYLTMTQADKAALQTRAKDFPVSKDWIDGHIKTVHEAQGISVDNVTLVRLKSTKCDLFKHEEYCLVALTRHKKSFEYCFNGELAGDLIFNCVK
The assay can be described thus: co-IP.

Assay [2] has as its target T1, BMV 1a protein, carboxy-terminal …. The assay can be described thus: co-IP. This is another data set of the same source.

B1: Lsm1 (natural protein, S. cerevisiae (endogenous in YPH500), UniProt P47017 1-172, looked up)
chain: MSANSKDRNQSNQDAKRQQQNFPKKISEGEADLYLDQYNFTTTAAIVSSVDRKIFVLLRDGRMLFGVLRTFDQYANLILQDCVERIYFSEENKYAEEDRGIFMIRGENVVMLGEVDIDKEDQPLEAMERIPFKEAWLTKQKNDEKRFKEETHKGKKMARHGIVYDFHKSDMY
In the case of B1, in assay [1], the “fold enrichment compared with “Flag only” control” value came to 2 fold. Besides, the “fold enrichment compared with “Flag only” controls” value in assay [2] stood at 7 fold.

B2: Pat1 (natural protein, S. cerevisiae (endogenous in YPH500), UniProt P25644 1-796, looked up)
chain: MSFFGLENSGNARDGPLDFEESYKGYGEHELEENDYLNDETFGDNVQVGTDFDFGNPHSSGSSGNAIGGNGVGATARSYVAATAEGISGPRTDGTAAAGPLDLKPMESLWSTAPPPAMAPSPQSTMAPAPAPQQMAPLQPILSMQDLERQQRQMQQQFMNFHAMGHPQGLPQGPPQQQFPMQPASGQPGPSQFAPPPPPPGVNVNMNQMPMGPVQVPVQASPSPIGMSNTPSPGPVVGATKMPLQSGRRSKRDLSPEEQRRLQIRHAKVEKILKYSGLMTPRDKDFITRYQLSQIVTEDPYNEDFYFQVYKIIQRGGITSESNKGLIARAYLEHSGHRLGGRYKRTDIALQRMQSQVEKAVTVAKERPSKLKDQQAAAGNSSQDNKQANTVLGKISSTLNSKNPRRQLQIPRQQPSDPDALKDVTDSLTNVDLASSGSSSTGSSAAAVASKQRRRSSYAFNNGNGATNLNKSGGKKFILELIETVYEEILDLEANLRNGQQTDSTAMWEALHIDDSSYDVNPFISMLSFDKGIKIMPRIFNFLDKQQKLKILQKIFNELSHLQIIILSSYKTTPKPTLTQLKKVDLFQMIILKIIVSFLSNNSNFIEIMGLLLQLIRNNNVSFLTTSKIGLNLITILISRAALIKQDSSRSNILSSPEISTWNEIYDKLFTSLESKIQLIFPPREYNDHIMRLQNDKFMDEAYIWQFLASLALSGKLNHQRIIIDEVRDEIFATINEAETLQKKEKELSVLPQRSQELDTELKSIIYNKEKLYQDLNLFLNVMGLVYRDGEISELK
Turning to B2, in assay [1], the “fold enrichment compared with “Flag only” control” value was 4.5 fold. For the same molecule, the “fold enrichment compared with “Flag only” controls” value in assay [2] was 25 fold.
